Patent US8207309B2, “Human synthetic single-chain antibodies directed against the common epitope of mutant P53 and their uses” (Ramot at Tel-Aviv University Ltd., priority 2005, dated 2012)
Changes are numbered by the printed parent chain. Entries after “also recorded” stand apart in the source; their conditions may differ. Where two headings read alike, the source gives them in different places.

B1: A4 scFv: human scFv clone; VL CDRs SEQ ID NOs:36-38 (protein)
scFv: VQLLESGGGLVQPGGSLRLSCAASGFTFSGYWMHWVRQAPGKGLEWVSEISGSGDSTHYGDSVKGRFTISRDNSKNTLYLQMNSLRAEDTAVYYCARGRNGSLDYWGQGTLVTVSSGSAGGGGSGGGGSGGGGSDIVLTQPPSASGTPGQRVTISCTGNSSNIGAGYDVHWYQQLPGKAPKLLIYSNNQRPSGVPDRFSGSKSGTSASLAISGLRSEDEADYYCAAWDDSLSSVVFGGGTKLTV
B2: B6 scFv: human scFv clone; VL CDRs SEQ ID NOs:27-29 (protein)
scFv: B1 scFv with N159S, S161A, S186D, N188D, Q189K, S230R, S233G, L242V
B3: A6 scFv: human scFv, SEQ ID NO:115; VL CDRs SEQ ID NOs:60-62 (protein)
scFv: VQLLESGGGLVQPGGSPRLSCAASGFTFSGYWMHWVRQAPGKGLEWVSEISGSGDSTHYGDSVKGRFTISRDNSKNTLYLQMNSLRAEDTAVYYCARGRNGSLDYWGQGTLVTVSSGSAGGGGSGGGGSGGGGSDIVLTQPPSASGTPGQRVTISCTGGRFNIGDYAVNWYQQLPGKAPKLLIYDNDRRPSGVSDRFSGSKSGTSASLAISGLRSEDEADYYCAAWDDSLDGLVFGGGTQLTV
modifications: Single chain Fv

Assays:
[1] = system: BSA, Streptavidin, amyloid peptide (SEQ ID NO:2), MAP-PrP, PaP; settings: ELISA, FIG. 9, SEQ ID NOs:2-4
[2] = target: T1, FRHSVV peptide (SEQ ID NO:1; common epitope of mutant p53) (Homo sapiens, UniProt P04637); assay: Binding specificity ELISA of scFvs (FIG. 9)
T1 construct: A biotin conjugate of the peptide (FRHSVV)

[3] = target: T2, common epitope of mutant p53 (FRHSVV; SEQ ID NO:1) (Homo sapiens, UniProt P04637); assay: BIAcore analysis of scFv binding to immobilized FRHSVV-biotin peptide; settings: FRHSVV-biotin on streptavidin chip, 1:1 Langmuir model, read-out: affinity (binding constant) towards the common epitope (SEQ ID NO:1)
T2 construct: A biotin conjugate of the peptide (FRHSVV)
Description: Binding was determined using the BIACore at the indicated concentrations of antibodies. RU=resonance units. The binding constant was determined using the software that is supplied with the BIAcore instrument (wwwdotBiacoredotcom).
BIAcore Analysis—Real time analysis of the interaction between scFvs and FHRSVV-biotin were determined using BIAcore technology (Biacore AB, Uppsala, Sweden) according to manufacturer's instructions. The peptide FRHSVV-biotin was immobilized on a streptavidin coated sensor chip surface SA. The amount of immobilized peptide was 200 pg/mm^2, the binding was in HBS buffer (10 mM Hepes PH 7.4, 150 mM NaCl, 0.005% Tween-20, 3.4 mM EDTA). Several concentrations of purified scFv (62 nM, 125 nM, 250 nM, 1 μM and 2 μM) were injected at a flow rate of 20 μl/minute. […] Regeneration of the sensor chip was performed using 10 μl of 10 mM HCl. The kinetics parameters of the binding reactions were determined by BIAevaluation 4.0 Software (Biacore AB) using the 1:1 Langmuir model. The dissociation rate (off-rate) constant Kd and the association rate constant (on-rate) Ka were determined simultaneously according to manufacturer's instructions.
The scFv F2 and E6 antibodies display high affinity binding of the mutant epitope—To determine the affinity binding of the isolated scFvs towards the target peptide (SEQ ID NO:1), the BIAcore technology was employed. […]

Molecule | binding to the other peptides or proteins tested [1] | binding to peptide of the common epitope of mutant p53 (SEQ ID NO:1) [2] | binding to peptide of the common epitope of mutant p53 (SEQ ID NO:1) ([2]; listed as A4) | Kd [3]
B1 | low affinity | high affinity | highly specific; also recorded: high binding specificity | –
B2 | low affinity | – | – | –
B3 | – | – | – | 23 nM
